Source: patent publication US20260226180A1 (BIOCYTOGEN PHARMACEUTICALS BEIJING, published 2026)
Like-named read-outs stand apart in the source and are kept apart here.

T1: human IL2RA expressed on CHO-S cells (CHO-S-hIL2RA cells) (human, UniProt P01589 22-272)
T1 sequence: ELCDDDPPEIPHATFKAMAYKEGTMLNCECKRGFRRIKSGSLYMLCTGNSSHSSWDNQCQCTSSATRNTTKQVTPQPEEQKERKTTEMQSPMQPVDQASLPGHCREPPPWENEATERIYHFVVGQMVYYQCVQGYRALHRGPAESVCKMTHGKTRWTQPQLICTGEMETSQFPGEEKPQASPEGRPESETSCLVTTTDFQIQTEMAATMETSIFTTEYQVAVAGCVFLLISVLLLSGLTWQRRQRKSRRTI

T2: monkey (Macaca fascicularis) IL2RA expressed on CHO-S cells (CHO-S-fasIL2RA cells) (monkey (Macaca fascicularis), UniProt Q5MNY4 22-272)
T2 chain: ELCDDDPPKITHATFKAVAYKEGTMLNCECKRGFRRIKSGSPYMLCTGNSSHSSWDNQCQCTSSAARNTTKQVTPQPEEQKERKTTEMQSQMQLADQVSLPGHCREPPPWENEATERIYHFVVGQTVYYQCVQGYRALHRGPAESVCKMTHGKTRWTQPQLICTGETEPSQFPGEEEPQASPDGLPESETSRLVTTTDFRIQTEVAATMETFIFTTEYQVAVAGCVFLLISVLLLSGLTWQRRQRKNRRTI

T3: His-tagged human IL2RA protein (hIL2RA-his, ACROBiosystems Inc., Cat #: ILA-H52H9) (human, UniProt P01589 22-213, limits assumed)
T3 construct: Bought protein; the soluble protein is most likely only an extracellular part of it; not shown: His tag
T3 sequence: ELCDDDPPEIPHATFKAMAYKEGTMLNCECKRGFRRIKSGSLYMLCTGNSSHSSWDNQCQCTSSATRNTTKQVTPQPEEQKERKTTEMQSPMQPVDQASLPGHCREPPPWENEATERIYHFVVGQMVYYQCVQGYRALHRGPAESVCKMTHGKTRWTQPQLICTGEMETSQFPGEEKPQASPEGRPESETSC

T4: His-tagged recombinant monkey (Cynomolgus monkey, Macaca fascicularis) IL2RA protein (cynoIL2RA-his, Sino … (Cynomolgus monkey (Macaca fascicularis), UniProt Q5MNY4 22-213 (rhesus entry)))
T4 construct: Bought protein; the soluble protein is most likely only an extracellular part of it; not shown: His tag
T4 chain: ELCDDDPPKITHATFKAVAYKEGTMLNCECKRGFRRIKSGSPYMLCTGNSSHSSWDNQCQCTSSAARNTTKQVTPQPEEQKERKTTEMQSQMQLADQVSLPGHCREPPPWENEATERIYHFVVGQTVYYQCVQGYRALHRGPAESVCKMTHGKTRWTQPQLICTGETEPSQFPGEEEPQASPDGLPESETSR

B1: Daclizumab analog (antibody, V domains shown)
VH: QVQLVQSGAEVKKPGSSVKVSCKASGYTFTSYRMHWVRQAPGQGLEWIGYINPSTGYTEYNQKFKDKATITADESTNTAYMELSSLRSEDTAVYVCARGGGVFDYWGQGTLVTVSS
VL: DIQMTQSPSTLSASVGDRVTITCSASSSISYMHWYQQKPGKAPKLLIYTTSNLASGVPARFSGSGSGTEFTLTISSLQPDDFATYYCHQRSTYPLTFGQGTKVEVK
notes: Daclizumab is described as a humanized monoclonal antibody
B2: anti-IL2RA antibody 13F9 (antibody, human IgG1, V domains shown)
VH: QVQLVQSGAEVKRPGASVKVSCKASGYTFTTYAIHWVRQAPGQRLEWMGWINADNGYTKYSQNFQGRVTITRDTSASTAYMDLSTLRSEDTALYYCARTPRYCTSTSCSTGYYYYGMDVWGQGTTVTVSS
VL: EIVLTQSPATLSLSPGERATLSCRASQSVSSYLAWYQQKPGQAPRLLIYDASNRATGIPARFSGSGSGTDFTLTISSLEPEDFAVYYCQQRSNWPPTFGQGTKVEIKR
B3: RG6292 analog (antibody, V domains shown)
VH: QVQLVQSGAEVKKPGASVKVSCKASGYTFTSYYMHWVRQAPGQGLEWMGIINPSGGSTSYAQKFQGRVTMTRDTSTSTVYMELSSLRSEDTAVYYCARGGAEYIPAEYFQHWGQGTLVTVSS
VL: EIVMTQSPATLSLSPGERATLSCRASQSVSSYLAWYQQKPGQAPRLLIYDASNRATGIPARFSGSGSGTDFTLTISSLEPEDFAVYYCQQRPFLPTFGGGTKVEIK
notes: RG6292 is described as a human IgG1 monoclonal antibody
B4: anti-IL2RA antibody 14C2 (antibody, human IgG1, V domains shown)
VH: QVQLVQSGGGVVQPGRSLRLSCAASGFTFSTYGMHWVRQAPGKGLEWVAVISYDGSDKIYADSVKGRFTISRDNSKNTLFLQMNSLRAEDTAVYYCATGPMENYYYYNMDVWGLGTTVTVSS
VL: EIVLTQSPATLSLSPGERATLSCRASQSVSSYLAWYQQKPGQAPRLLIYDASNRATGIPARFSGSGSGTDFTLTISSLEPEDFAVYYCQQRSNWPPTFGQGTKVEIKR
B5: anti-IL2RA antibody 7B5 (antibody, V domains shown)
VH: EVQLQQWGAGLLKPSETLSLTCAVYGGSFSGYYWNWIRQPPGKGLEWIGESDHSGSTHFNPSLKSRVTISLDTSKNQFSLKLNSVTAADTAVYFCARAPDYGDFDHWGQGILVTVSS
VL: DIQMTQSPDSLAVSLGERATINCRSSQSVLHSSTNKRYLAWYQQKPRQPPKLLIYWTSTRESGVPDRFSGSGSGTDFTLTISSLQAEDVAVYFCQQYYSTPYTFGQGTKLEIK
B6: anti-IL2RA antibody 11C3 (antibody, human IgG1, V domains shown)
VH: QVQLVQSGAEVKKPGASVKVSCKASGYTFNSYYIHWVRQAPGQGLEWLGIINPTGGRTIYAQKFQGRVTMTRDTSTTTVDMELSSLRSEDTAVYYCARVPGYCKDTSCQDFYYYYGMDVWGQGSTVTVSS
VL: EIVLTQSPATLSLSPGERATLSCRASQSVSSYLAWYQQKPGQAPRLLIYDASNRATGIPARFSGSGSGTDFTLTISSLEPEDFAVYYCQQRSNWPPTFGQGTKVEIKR
B7: anti-IL2RA antibody 11C12 (antibody, human IgG1, V domains shown)
VH: QVQLVQSGGGLVQPGGSLRLSCSASGLTFSSYGMHWVRQAPGKGLDYVSGITNNGGRTEYADSVKGRFTISRDNSKNTLYLQMSSLRTEDTAVYYCVKEDWNGQYYYYAMDVWGQGTTVTVSS
VL: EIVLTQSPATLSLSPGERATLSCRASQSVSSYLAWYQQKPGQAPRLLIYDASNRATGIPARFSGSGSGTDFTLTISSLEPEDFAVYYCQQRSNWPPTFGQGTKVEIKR
notes: also called 1IC12
B8: anti-IL2RA antibody 5D9 (antibody, V domains shown)
VH: EVQLVESGGGLVQPGGSLRLSCAASGFTVSSNYMSWVRQTPGKGLELVSFIYSGGITSYADSVRGRFTISRDNSKNTLYLQMNSLRAEDTAVYYCARDDYSNYFDYWGQGTLVTVSS
VL: DIQMTQSPSSVSASVGDRVTITCRASQGISNWLAWYQQKPGKAPKLLIFAASSLQSGVPSRFSGSGSGTDFTLTISSLQPEDFATYYCQQAKSFPITFGQGTRLEIK
notes: Variable regions were cloned onto a human IgG constant region; also called 5D9-IgG1
B9: anti-IL2RA antibody 11D2 (antibody, human IgG1, V domains shown)
VH: QVQLVQSGGGVVQPGRSLRLSCAASGFTFTNYAIHWVRQAPGKGLEWVAVIWSDGDNKYYADSVKGRFTISRDNSKNTLYLQMNSLRAEDTAVYYCARTPWYCTSTNCYTGYYYYGMDVWGQGTTVTVSS
VL: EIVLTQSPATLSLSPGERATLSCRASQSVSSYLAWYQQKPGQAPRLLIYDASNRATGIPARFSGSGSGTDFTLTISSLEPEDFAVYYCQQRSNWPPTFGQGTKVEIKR

How the values were obtained:
[1] = target: T1, human IL2RA expressed on CHO-S cells …; test: flow cytometry blocking assay on CHO-S-hIL2RA cells; blocked ligand: biotinylated human IL-2 at 2.5 µg/mL, detected with APC streptavidin
Procedure: (§1) CHO-S-hIL2RA cells were seeded in a 96-well plate (cell density 2×10⁵ cells/well) and incubated at 37° C. overnight. […] The above 96-well plate was incubated at 4° C. for 20 minutes.
(§2) The mean fluorescence intensity (MFI) was determined. A fitting curve was obtained using Log(antibody concentration (μg/mL)) or antibody concentration (μg/mL) as the X-axis and Log(mean MFI) or MFI as the Y-axis.

[2] = target: T1, human IL2RA expressed on CHO-S cells …; test: as above; remark: listed apart in the source
Procedure: as §1, §2

[3] = target: T2, monkey (Macaca fascicularis) IL2RA …; test: flow cytometry on CHO-S cells expressing the target, anti-human IgG Fc secondary
Procedure: (§3) CHO-S-hIL2RA cells or CHO-S-fasIL2RA cells were plated in a 96-well plate at a density of 2×10⁵ cells/well. Serially diluted purified anti-IL2RA antibodies (maximum concentration: 9 μg/mL, 2-fold dilutions, 11 gradients) were added to each well and were incubated at 4° C. for 30 minutes.
(§4) The cells were collected, and the mean fluorescence intensity (MFI) was determined. A fitting curve was obtained using Log(antibody concentration (μg/mL)) as the X-axis and mean MFI as the Y-axis.

[4] = target: T1, human IL2RA expressed on CHO-S cells …; test: as above
Procedure: as §3, §4

[5] = target: T3, His-tagged human IL2RA protein …; test: SPR (Biacore 8K), antibody captured on Protein A chip, His-tagged antigen as analyte, 1:1 fit;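 also: antibodies captured at about 150 RU, antigen injected as a titration series, dissociation phase recorded over 400 s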
Procedure: (§5) Purified anti-IL2RA antibodies were diluted to 2 g/mL and then injected into the Biacore™ 8K biosensor at 10 L/min for about 50 seconds to achieve a desired protein density (e.g., about 150 response units (RU)). […] Dissociation was monitored for 400 seconds. The chip was regenerated after the last injection of each titration with glycine (pH 2.0, 30 L/min for 30 seconds).

[6] = target: T4, His-tagged recombinant monkey …; test: as above
Procedure: as §5

[7] = target: T4, His-tagged recombinant monkey …; test: SPR (Biacore 8K), antibody captured on Protein A chip, His-tagged antigen as analyte; "-" means no binding
Procedure: as §5

Row | Binder | IC50 (read off the curve) [1] [mg/L] | IC50 (read off the curve) [2] [mg/L] | EC50 [3] [mg/L] | EC50 [4] [mg/L] | Kd [5] [nM] | koff [5] [s⁻¹] | kon [5] [M⁻¹ s⁻¹] | Kd [6] [nM] | koff [6] [s⁻¹] | kon [6] [M⁻¹ s⁻¹] | binding result [7]
1 | B1 | ~0.6 | ~4 |  |  |  |  |  |  |  |  | 
2 | B2 |  |  | 0.275 | 0.326 | 0.655 | 2.11e-05 | 32300 | 11.8 | 0.000447 | 37800 | 
3 | B3 |  |  |  |  | 43.8 | 0.00203 | 46300 |  |  |  | no binding (tested: up to 200 nM antigen)
4 | B4 |  |  | 0.088 | 0.093 | 3.72 | 0.000962 | 258000 | 53.1 | 0.0116 | 218000 | 
5 | B5 |  |  | 0.435 | 0.411 | 6.35 | 0.0143 | 2.25e+06 | 24.6 | 0.0258 | 1.05e+06 | 
6 | B6 |  |  | 0.111 | 0.099 | 0.266 | 9.42e-05 | 354000 | 0.528 | 0.000166 | 314000 | 
7 | B7 |  |  | 0.091 | 0.083 | 8.9 | 0.00268 | 301000 | 118 | 0.0343 | 291000 | 
8 | B8 |  |  | 0.466 | 0.47 | 5.14 | 0.00043 | 83800 | 271 | 0.0193 | 71400 | 
9 | B9 |  |  | 0.039 | 0.052 | 1.27 | 0.000235 | 185000 | 2.53 | 0.000901 | 356000 | 
